Test results: patent US20210403527A1 (published 2021)

Molecular target: T1, NY-ESO-1 peptide on HLA-A*02:01 (human)
T1 peptide: SLLMWITQC
Experiment: multimer staining

Row | Binder | binding result
1 | TCR188 (TCR, V domains shown) Valpha: DAKTTQPNSMESNEEEPVHLPCNHSTISGTDYIHWYRQLPSQGPEYVIHGLTSNVNNRMASLAIAEDRKSSTLILHRATLRDAAVYYCILNTGTASKLTFGTGTRLQVTL Vbeta: GAVVSQHPSWVICKSGTSVKIECRSLDFQATTMFWYRQFPKQSLMLMATSNEGSKATYEQGVEKDKFLINHASLTLSTLTVTSAHPEDSSFYICSAKEGTEAFFGQGTRLTVV | recognises
2 | TCR090 (TCR, V domains shown) Valpha: GENVEQHPSTLSVQEGDSSVIKCTYSDSASNYFPWYKQELGKRPQLIIDIRSNVGEKKDQRIAVTLNKTAKHFSLHITETQPEDSAVYFCAATGYGQNFVFGPGTRLSVLP Vbeta: EAQVTQNPRYLITVTGKKLTVTCSQNMNHEYMSWYRQDPGLGLRQIYYSMNVEVTDKGDVPEGYKVSRKEKRNFPLILESPSPNQTSLYFCASSLRGPYGYTFGSGTRLTVV | recognises
3 | TCR018 (TCR, V domains shown) Valpha: AQTVTQSQPEMSVQEAETVTLSCTYDTSESDYYLFWYKQPPSRQMILVIRQEAYKQQNATENRFSVNFQKAAKSFSLKISDSQLGDAAMYFCAYRSANSGYALNFGKGTSLLVTP Vbeta: ETGVTQTPRHLVMGMTNKKSLKCEQHLGHNAMYWYKQSAKKPLELMFVYNFKEQTENNSVPSRFSPECPNSSHLFLHLHTLQPEDSALYLCASSQAHYTEAFFGQGTRLTVV | recognises
4 | TCR063 (TCR, V domains shown) Valpha: QKEVEQNSGPLSVPEGAIASLNCTYSDRGSQSFFWYRQYSGKSPELIMSIYSNGDKEDGRFTAQLNKASQYVSLLIRDSQPSDSATYLCAVNILASGGSYIPTFGRGTSLIVHP Vbeta: ETGVTQTPRHLVMGMTNKKSLKCEQHLGHNAMYWYKQSAKKPLELMFVYNFKEQTENNSVPSRFSPECPNSSHLFLHLHTLQPEDSALYLCASSHGTGYNYGYTFGSGTRLTVV | recognises
5 | TCR050 (TCR, V domains shown) Valpha: DAKTTQPNSMESNEEEPVHLPCNHSTISGTDYIHWYRQLPSQGPEYVIHGLTSNVNNRMASLAIAEDRKSSTLILHRATLRDAAVYYCILREGNNDMRFGAGTRLTVKP Vbeta: NAGVTQTPKFRILKIGQSMTLQCAQDMNHNYMYWYRQDPGMGLKLIYYSVGAGITDKGEVPNGYNVSRSTTEYFPLRLELAAPSQTSVYFCASSWTDNQPQHFGDGTRLSIL | recognises

Now from value to binder:

Row | binding result | Binder
6 | recognises | TCR184 (TCR, V domains shown) Valpha: DQQVKQNSPSLSVQEGRISILNCDYTNSMFDYFLWYKKYPAEGPTFLISISSIKDKNEDGRFTVFLNKSAKHLSLHIVPSQPGDSAVYFCAARKNYGGSQGNLIFGKGTKLSVKP Vbeta: DAGVTQSPTHLIKTRGQQVTLRCSPISGHKSVSWYQQVLGQGPQFIFQYYEKEERGRGNFPDRFSARQFPNYSSELNVNALLLGDSALYLCASSLGSYDYTFGSGTRLTVV
7 | recognises | TCR108 (TCR, V domains shown) Valpha: GENVEQHPSTLSVQEGDSAVIKCTYSDSASNYFPWYKQELGKRPQLIIDIRSNVGEKKDQRIAVTLNKTAKHFSLHITETQPEDSAVYFCAASMKDSSYKLIFGSGTRLLVRP Vbeta: ETGVTQTPRHLVMGMTNKKSLKCEQHLGHNAMYWYKQSAKKPLELMFVYNFKEQTENNSVPSRFSPECPNSSHLFLHLHTLQPEDSALYLCASSQGPGYTFGSGTRLTVV
8 | recognises | TCR317 (TCR, V domains shown) Valpha: QKEVEQNSGPLSVPEGAIASLNCTYSDRGSQSFFWYRQYSGKSPELIMSIYSNGDKEDGRFTAQLNKASQYVSLLIRDSQPSDSATYLCAVNSSPYKLSFGAGTTVTVRA Vbeta: ETGVTQTPRHLVMGMTNKKSLKCEQHLGHNAMYWYKQSAKKPLELMFVYNFKEQTENNSVPSRFSPECPNSSHLFLHLHTLQPEDSALYLCASSQGPGYTFGSGTRLTVV
9 | recognises | TCR001 (TCR, V domains shown) Valpha: DAKTTQPNSMESNEEEPVHLPCNHSTISGTDYIHWYRQLPSQGPEYVIHGLTSNVNNRMASLAIAEDRKSSTLILHRATLRDAAVYYCILRPDSWGKFQFGAGTQVVVTP Vbeta: NAGVTQTPKFRILKIGQSMTLQCAQDMNHNYMYWYRQDPGMGLKLIYYSVGAGITDKGEVPNGYNVSRSTTEYFPLRLELAAPSQTSVYFCASSYSGGSPLHFGNGTRLTVT
10 | recognises | TCR167 (TCR, V domains shown) Valpha: DAKTTQPNSMESNEEEPVHLPCNHSTISGTDYIHWYRQLPSQGPEYVIHGLTSNVNNRMASLAIAEDRKSSTLILHRATLRDAAVYYCILRPDSWGKFQFGAGTQVVVTP Vbeta: GAVVSQHPSWVICKSGTCVKIECRSLDFQATTMFWYRQFPKQSLMLMATSNEGSKATYEQGVEKDKFLINHASLTLSTLTVAGAHPEDSSFYICSAMTVMNTEAFFGQGTRLTVV
